In paper PMC3931814, “Dehydroepiandrosterone Sulfate (DHEAS) Stimulates the First Step in the Biosynthesis of Steroid Hormones” (PLoS ONE, 2014) one finds Kd and koff data, which are given here for one molecule.

What all share (conditions): both partners purified
Experiment [1] deals with T1, CYP11A1 (UniProt P00189 40-520).
T1 construct: CYP11A1 (cholesterol side-chain cleavage cytochrome P450); Single band at 55 kDa on SDS gel; Heme protein; also called recombinant CYP11A1; His-tagged CYP11A1; source: E. coli C43(DE3), co-transformed with groEL/groES chaperones, purified (IMAC Ni-NTA, SP-sepharose)
T1 sequence (looked up): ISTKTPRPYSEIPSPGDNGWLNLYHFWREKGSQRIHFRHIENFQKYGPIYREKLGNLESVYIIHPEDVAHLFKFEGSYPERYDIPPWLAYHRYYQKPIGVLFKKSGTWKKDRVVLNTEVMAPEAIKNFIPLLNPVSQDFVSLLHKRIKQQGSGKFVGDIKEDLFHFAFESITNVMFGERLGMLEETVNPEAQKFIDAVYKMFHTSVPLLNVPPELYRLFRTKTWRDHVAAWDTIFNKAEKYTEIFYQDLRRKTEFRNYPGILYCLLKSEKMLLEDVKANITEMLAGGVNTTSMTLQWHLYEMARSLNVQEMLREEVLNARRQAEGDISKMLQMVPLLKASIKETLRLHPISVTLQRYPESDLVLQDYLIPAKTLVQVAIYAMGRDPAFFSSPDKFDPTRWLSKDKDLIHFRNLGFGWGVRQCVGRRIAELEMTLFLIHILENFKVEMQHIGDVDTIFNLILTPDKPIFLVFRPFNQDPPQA
Put plainly: SPR; Biacore3000; CYP11A1 injected at 5-7.5 nM in HBS-EP buffer, at least three times each; bound CYP11A1 removed with 2 mM NaOH; in absence of cholesterol; Biaeval 4.1.

Experiment [2] concerns the target T1, CYP11A1. Put plainly: SPR; Biacore3000; CYP11A1 injected at 5-7.5 nM in HBS-EP buffer; bound CYP11A1 removed with 2 mM NaOH; in the presence of cholesterol (CYP11A1:cholesterol 1:10 by the methods, 1:15 by the legend of Figure 7); Biaeval 4.1.
The target of experiment [3] is T1, CYP11A1. Kind of experiment: SPR; Biacore3000; CYP11A1 injected at 5-7.5 nM in HBS-EP buffer; bound CYP11A1 removed with 2 mM NaOH; in the presence of cholesterol and DHEAS (CYP11A1:cholesterol:DHEAS 1:10:50 by the methods, 1:15:75 by the legend of Figure 7); Biaeval 4.1.
The target of experiment [4] is T1, CYP11A1. Kind of experiment: SPR; Biacore3000; CYP11A1 injected at 5-7.5 nM in HBS-EP buffer; bound CYP11A1 removed with 2 mM NaOH; in the presence of cholesterol (CYP11A1:cholesterol 1:10 by the methods, 1:15 by the legend of Figure 7); Biaeval 4.1. Set-up: scale not given here.
In experiment [5] the target is T1, CYP11A1. Kind of experiment: SPR; Biacore3000; CYP11A1 injected at 5-7.5 nM in HBS-EP buffer, at least three times each; bound CYP11A1 removed with 2 mM NaOH; in absence of cholesterol; Biaeval 4.1. On the set-up: scale not given here.

B1: bovine adrenodoxin (natural protein, UniProt P00257 59-186, looked up)
chain: SSSEDKITVHFINRDGETLTTKGKIGDSLLDVVVQNNLDIDGFGACEGTLACSTCHLIFEQHIFEKLEAITDEENDMLDLAYGLTDRSRLGCQICLTKAMDNMTVRVPDAVSDARESIDMGMNSSKIE
notes: adrenodoxin (Adx), bovine, the ferredoxin that transfers electrons to CYP11A1; [2Fe-2S] protein; also called Adx
Turning to B1, the figures for the dissociation constant Kd with CYP11A1 [1], in the experiment with CYP11A1 [2] and with CYP11A1 [3] were 3.8 ± 0.55 nM, 3 ± 0.35 nM and 2.4 ± 0.05 nM, respectively. Also, the koff with CYP11A1 [4] turned out to be 2.8 ± 0.09 s⁻¹; in the experiment with CYP11A1 [5], 2.4 ± 0.99 s⁻¹.
